Test: soluble on expression in E. coli; label from the status in PepcDB or PDB records

Sequence | soluble on expression in E. coli
SASRGKTETSKLKQNLEEQLDRLMQQLQDLEECREELDTDEYEETKKETLEQLSEFNDSLKKIMSGNMTLVDELSGMQLAIQAAISQAFKTPEVIRLFAKKQPGQLRTRLAEMDRDLMVGKLERDLYTQQKVEILTALRKLGEKLTADDEAFLSANAGAILSQFEKVSTDLGSGDKILALASFEVEKTKK | soluble
GMSRGHCILAHGFESGPDALKVTALAEVAERLGWTHERPDFTDLDARRDLGQLGDVRGRLQRLLEIARAATEKGPVVLAGSSLGSYIAAQVSLQVPTRALFLMVPPTKMGPLPALDAAAVPISIVHAWHDELIPAADVIAWAQARSARLLLVDDGHRLGAHVQAASRAFAELLQSL | soluble
MADYYGLFTSDTRSVSDGESDGERRLRRSRRKRGGGRFRPYSPDYSDDEKTKPTKKNQKRPDKQDRFGMAPPNSTQFLLEDREARADAEFENEQKFEAAERRRVRTMSGSYEHMRPAYWCTIEPATTTADFGSDDNNDLDSTSGESEADREMEREFETDYLEVKRERIQSMTRSQLAAELLERDQDTQVLTRELGSKETENRHLRSLLSAHGISPDEPVTSTTAIVVGQSKSPVVAN | not soluble
MNQTLETGTTTVGITLKDAVIMATERRVTMENFIMHKNGKKLFQIDTYTGMTIAGLVGDAQVLVRYMKAELELYRLQRRVNMPIEAVATLLSNMLNQVKYMPYMVQLLVGGIDTAPHVFSIDAAGGSVEDIYASTGSGSPFVYGVLESQYSEKMTVDEGVDLVIRAISAAKQRDSASGGMIDVAVITRKDGYVQLPTDQIESRIRKLGLILHHHHHH | soluble
MSGFFQRLFGKDNKPAIARGPLGLHLNSGFTLDTLAFRLLEDELLIALPGEEFTVAAVSHIDLGGGSQIFRYYTSGDEFLQINTTGGEDIDDIDDIKLFVYEESYGISKESHWREAINAKAMGAMTLNWQEKRWQRFFNSEEPGNIEPVYMLEKVENQNHAKWEVHNFTMGYQRQVTEDTYEYLLLNGEESFNDLGEPEWLFSRALGVDIPLTSLHIIG | not soluble
MTNPLYTGHPFGTTVTEETLRAIFLPLTQWEDKYRQLILLGKQLPALPDECKAQAKEIAGCENRVWLGFTRSDNGTMHFFGDSEGRIVRGLLAVLLTAVEGKNAAELQARSPLALFDELGLRAQLSASRSQGLNALSEAIVAATHKG | not soluble
MGDDLDSLTDQLSSGFQVDPLALGEHPRYSQYKNLTKAAEQQAKRREETLERQKNGRFDTFMKLRNLAFDDVTSDEDDEQKIETTTAEKHTGKFKKYADKMMLSEWLVDIPESLSSDWTMVMAPVGKRTLVVASRGFTVAYNKGGREVSRFQSRLPGGNTRAKNQAWTILDCIYSNQTYYVLDLLSWNAHEYVESPYDFRQFMLKSKLEEAPELAKSTPGFRNIFSPIPSCPCSQDQMAELMKNEISFRLDGLLFYHNSVVYQPGQSPLVGWLKPWMLPEILNVPVPEKYKAESNGQSSSQFIESFNQKHKHQSKIDRSMEH | not soluble
MVGDGIAKFIPEGFDAQKIPSFAIEKEPREQGALPADWVLVPEFSLTDGKANASLTVPEGTSIYGGGEVTGSLLRNGKTIKLWNTDSGAYGVDKGTRLYQSHPWMMGVRKDGTAFGILFDTTWKAELSSTDEKIELKSEGIPFRVFIIDRESPQAVIRGLSELTGTMPMIPRWALGYQQCRFSYSPDSRVIEIADTFRLKRIPCDVIWMDIDYMDGYRIFTFNPKSFPNPKAVNRDLHIRGFHSAWMIDPGAKVDPNYFVYKSGTENDVWVKTADGKNFHGDAWPGAAAFPDFTSPKVNKWWRNLYKDFLAQGVDGVWNDVNEPQINDTPNKTMPEDNLHRGGGKLPAGTHLQYHNVYGFLMVKASREGILDARPEKRPFILTRSNFLGGQRYAATWTGDNGSCWDHLKMSVPMSLTLGLSGQPFSGADIGGFLFNADADLFGNWIGFGAFYPFARGHACAGTNNKEPWVFGQKVEDASRIALERRYILLPYFYTLLHEASTNGMPIMRPVFFSDPKDLSLRAEEEAFLVGDNLLIIPAFANQPALPKGIWKELSLVEGDQNDKYQAKMKIRGGAIIPTGKIIQNTTENSLDPLTLLVCLDEQGKASGNMYWDAGDGWSYKKGDYSLLQFVAERNGDKVTVKLTKKTGKYNTENKDMAVIKIITDQGIRQASGNLVEGIEIRL | not soluble
MSLTKHVAVLLAHGFEEAEAVIFIDIMRRLDIRVDILSCEATTALSTYFETPISADALLSDRLDHHYDAVMMPGGPKGTDSLTANPQVIAFLRRHIAQDKYICALCSSGAKVLAAHHLLAGRTYSTGDKLADKFADGVYLDQDVVVDGKFITAKGLGVSFEFAFTVARHLLSDNLPKVEHQASHIYFKHGSAEGHHHHHH | soluble
MSLGYLNNVTGYREDLLANRAIVKHGNFALLTPDGLVKNIIPGFENCDATILSTPKLGASFVDYLVTLHQNGGNQQGFGGEGIETFLYVISGNITAKAEGKTFALSEGGYLYCPPGSLMTFVNAQAEDSQIFLYKRCYVPVEGYAPWLVSGNASELERIHYEGMDDVILLDFLPKELGFDMNMHILSFAPGASHGYIETHVQEHGAYILSGQGVYNLDNNWIPVKKGDYIFMGAYSLQAGYGVGRGEAFSYIYSKDCNRDVEIEGGSHHHHHH | soluble
MEFHFFGTGSGVPSIERNVSACAVRFLQQRGKQWLFDCGEATQHQILRSSIALGKIERIFITHLHGDHIFGLPGLLGSRSFQGGENPLFLYGPKGIRSFVETALQVSNTHVKYELTIEEFSEPGLLFHEEGFKVETILLDHVMPCYAFKVTEDDRPGELLVDRLKAKGVPPGPLYRKIQQGETVELPTGERLEANAFLGPPKRGRSFVLAGDTRPVKELIPFAKNVNVLIHEATFLDDKKGHAHEYGHSTMADAIQLAKQANVDHLILTHISSRYHDMSDELQKKAQNAFANAVVAHDFYVFHLPLAKGLEHHHHHH | not soluble
MGSDKIHHHHHHMKVLVFDVSAPYALFRRPYTTTSSYTLPFPPRTTLLGLVGCVLGYSTPERLDSAKVAVQIKNPLKFLRTGTNFVETKKDKKASKRTRISLQLLKNPAYRVFFSWEDEDFERLKNLLEHSETIFTPYLGVASFIARLNYVGKYEATRVADFPCEVHTVVPNTVKLLPEPSHYLIFERVTRKMDKERNMLESAVYIFKRDLSPVKVEGGEVWRVGEQNIVWM | not soluble
MSLYDTILFPTDGSNAAESVLEYALQIASEHEATIHILNVADTGRDSVTTIRGEVIDVLETEGERIVAEATQYAKDEGVPVVSAVLQGDPHKTIVDYSQQSDSDCIVMPTHGQRGIQRILLGSVTERVINTAEVPVIAVNPDRDRPLVYPPQHVLVPTDGSRGADLALTEGIAVARATDATLHLLHVVETGGLGPDARSVLKEGELTERANEIMAGATEKIDDTSLDTVTSVIEHGDPSKVICDYIDENEVDLAVMGTHGQTDFSRYVMGGVSAKLVRKSPVPVTWVREPESEGHHHHHH | soluble
MVAGGFGVGKTTLIGSVSEVRPLRMEEPITQASAGVDDLRGTPHKTTTTVAMDFGRIHMAGGRLALYLFGLPGQSRFQPLWEDLAEGALGCLVLADTRDLDASHDALGLLDGAGIPYAVAINTFPGSPSYPEAELREALALEPATPLTYCDARDRTSSLHALITLTEYLSEHRSAALLESRRLEHHHHHH | not soluble
SLENLATAPVNQIQETISDNCVVIFSKTSCSYCTMAKKLFHDMNVNYKVVELDLLEYGNQFQDALYKMTGERTVPRIFVNGTFIGGATDTHRLHKEGKLLPLVHQCYLKKSKRKEFQ | soluble
MAKNKTVFSCTECGGQSPKWQGQCPHCSAWNTLVEAVAAPAAASPRFQSWAANVTKVQKLSEVQTEETPRDPSGIDELDRVLGGGIVRGAVVLIGGDPGIGKSTLLLQALSQIGRSRKVLYVSGEESAQQIALRASRLALDTSSVDLLAEICIENILETLKREQPEVVVIDSIQTLYTEQVTSAPGSVSQVRECAAQLTRMAKQSGITVLLVGHVTKEGSLAGPRVLEHMVDTVLYFEGDSHSSYRMIRAIKNRFGAVNELGVFAMTDRGLKGVSNPSAIFLSSYRDDVAGSCVLVTQEGTRPLLVEIQALVDDCHGFQPKRLTVGLEQNRLSMLLAVLHRHGGVACFDQDVFLNAVGGVKINEPAADLAIILAMVSSLRNKALPEKLVVFGEVGLAGEVRPVTRGQERLKEAAKLGFTRAIVPTANKPRQEIEGLKVLAVDRLDQAVEYCRE | not soluble
GPGSMLRRLGSTLFCSVTLANGTVLKGDLNPHNPSLLLKGITILPDGRVYSGSYDATSGFPLPGSQLEEDGDLYRGDFNTQWQREGRGEAWLADGTHYAGVFKNDEITEGIVRIPNGTTEVVFEGTLSDEAFVKGKLTQSDFVYEGEFSDNEPHGKGKLVFATGAVQEGTFFHGKLHGPDCKMKLDGGFVYVGEFLDGQIRRGTLYTPTYTYEGEFNEHGRAQGEGTQTYLINEPRLTFTGIWTNGALVRGVCMDEYGSAVDWQNNDELQAKVLGGATGKGSESVGLNSYCSARMKEAAQLHSDMQRSYAEDAEAVAQSTGRFPTKMDLGYEGSIAHENEAVMQAQQRQMQDIERSKEVLSDRARDFGPIASGSRGNIIGEIDENMARIQFRRQVGAEEVSAARVDEQFERFMKSFKKPSPLPGAPAQVAQKLNIDGNAPWKAFTPLK | soluble
MAHHHHHHMADYGWTRGKLPKFRARSPFHRQQIARRMVTEMIRKDYCIVGGARAPALRILADHVVELAKAGDTDSRQQLAYFLHDPLMVDKAFDEYPRRFKDMNAKYAMMTRLKSRRRTDAVAMYFVEYKNRDMSDNHKGEDYSAGPERFFLPPRIVETEKGIQRPPHMQMAFDRWASKFKTEEFHHWWRLRHAKLRYWGVRNVPHPSDVDPLWTEKEEEEWHNEMLANTGEYEDLDLDDESYTAAGEGGEPSPAGDGPQPQRVG | not soluble
MTVPTYDKFIEPVLRYLATKPEGAAARDVHEAAADALGLDDSQRAKVITSGQLVYKNRAGWAHDRLKRAGLSQSLSRGKWCLTPAGFDWVASHPQPMTEQETNHLAFAFVNVKLKSRPDAVDLDPKADSPDHEELAKSSPDDRLDQALKELRDAVADEVLENLLQVSPSRFEVIVLDVLHRLGYGGHRDDLQRVGGTGDGGIDGVISLDKLGLEKVYVQAKRWQNTVGRPELQAFYGALAGQKAKRGVFITTSGFTSQARDFAQSVEGMVLVDGERLVHLMIENEVGVSSRLLKVPKLDMDYFE | soluble
MNNYTIKDITRASGGFAMLAVDQREAMRLMFAAAGAKTPVADSVLTDFKVNAAKILSPYASAVLLDQQFCYRQAVEQNAVAKSCAMIVAADDFIPGNGIPVDNVVLDKKINAQAVKRDGAKALKLLVLWRSDEDAQQRLNMVKEFNELCHSNGLLSIIEPVVRPPRCGDKFDREQAIIDAAKELGDSGADLYKVEMPLYGKGARSDLLTASQRLNGHINMPWVILSSGVDEKLFPRAVRVAMEAGASGFLAGRAVWSSVIGLPDTELMLRDVSAPKLQRLGEIVDEMMAKRR | soluble
MGSDKIHHHHHHMGDLPGLVRLSIALRIQPNDGPVFYKVDGQRFGQNRTIKLLTGSSYKVEVKIKPSTLQVENISIGGVLVPLELKSKEPDGDRVVYTGTYDTEGVTPTKSGERQPIQITMPFTDIGTFETVWQVKFYNYHKRDHCQWGSPFSVIEYECKPNETRSLMWVNKESFL | not soluble
MAHHHHHHMMKEETLNSDNSSAEVSVESPSFSFNCAHFIAYNGFRETLHGHNYNVSLKVRGYVRDDGYVIDFSILKEKVKKVCNKLDHHFILPIYSDVLKFENVKNNIKIICEDNSEYSFPERDCIKLPIKHSSTEEIGQYILNQLIEEMDVSLLKSRHIHYIEISVSESPTQKAIVHKYI | soluble
QVQLQQSGAELVKPGASVRMSCKASGYTFTNYNMYWVKQSPGQGLEWIGIFYPGNGDTSYNQKFKDKATLTADKSSNTAYMQLSSLTSEDSAVYYCARSGGSYRYDGGFDYWGQGTTVTVSS | soluble
KDFLAMFSPKCGGCNRPVLENYLSAMDTVWHPECFVCGDCFTSFSTGSFFELDGRPFCELHYHHRRG | soluble

Reference: the DeepSol protein solubility set
